From patent EP1780277A1

Biological target: intact IFNAR1 from human cells (human) (UniProt P17181)
Experiment: cell-based or functional assay

Chain of UniProt P17181 (P17181 28-557): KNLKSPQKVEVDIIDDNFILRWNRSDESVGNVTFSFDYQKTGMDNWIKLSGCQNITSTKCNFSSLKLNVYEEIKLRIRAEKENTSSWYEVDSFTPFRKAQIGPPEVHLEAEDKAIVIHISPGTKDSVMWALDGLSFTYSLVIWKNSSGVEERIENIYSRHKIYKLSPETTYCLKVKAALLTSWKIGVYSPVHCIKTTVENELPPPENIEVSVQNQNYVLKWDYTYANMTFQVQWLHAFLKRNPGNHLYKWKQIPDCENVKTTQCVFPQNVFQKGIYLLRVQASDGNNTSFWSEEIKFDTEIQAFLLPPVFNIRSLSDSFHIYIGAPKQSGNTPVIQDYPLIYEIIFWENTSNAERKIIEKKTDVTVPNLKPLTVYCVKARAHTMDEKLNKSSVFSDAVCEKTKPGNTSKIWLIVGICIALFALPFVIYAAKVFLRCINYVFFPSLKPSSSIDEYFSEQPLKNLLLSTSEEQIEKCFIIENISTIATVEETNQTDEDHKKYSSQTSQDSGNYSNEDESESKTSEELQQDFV

Substance: IR1B4/PRMT protein of human U266S cells (from UniProt Q99873 11-371)
- growth inhibitory effect of IFN-β on myeloma cells (Alamar Blue), with antisense-1 oligonucleotide against IR1B4: < 5 fold
